Patent US6872808 (CORVAS INTERNATIONAL, dated 2005)

Legend:
[1] = biological target: human alpha-thrombin (human, UniProt P00734 328-622); assay: cell-based or functional assay
[2] = biological target: human Factor XIa (human, UniProt P03951 19-625); assay: cell-based or functional assay
[3] = biological target: T1, human Factor XIIa (human, UniProt P00748 20-615); assay: cell-based or functional assay
T1 sequence: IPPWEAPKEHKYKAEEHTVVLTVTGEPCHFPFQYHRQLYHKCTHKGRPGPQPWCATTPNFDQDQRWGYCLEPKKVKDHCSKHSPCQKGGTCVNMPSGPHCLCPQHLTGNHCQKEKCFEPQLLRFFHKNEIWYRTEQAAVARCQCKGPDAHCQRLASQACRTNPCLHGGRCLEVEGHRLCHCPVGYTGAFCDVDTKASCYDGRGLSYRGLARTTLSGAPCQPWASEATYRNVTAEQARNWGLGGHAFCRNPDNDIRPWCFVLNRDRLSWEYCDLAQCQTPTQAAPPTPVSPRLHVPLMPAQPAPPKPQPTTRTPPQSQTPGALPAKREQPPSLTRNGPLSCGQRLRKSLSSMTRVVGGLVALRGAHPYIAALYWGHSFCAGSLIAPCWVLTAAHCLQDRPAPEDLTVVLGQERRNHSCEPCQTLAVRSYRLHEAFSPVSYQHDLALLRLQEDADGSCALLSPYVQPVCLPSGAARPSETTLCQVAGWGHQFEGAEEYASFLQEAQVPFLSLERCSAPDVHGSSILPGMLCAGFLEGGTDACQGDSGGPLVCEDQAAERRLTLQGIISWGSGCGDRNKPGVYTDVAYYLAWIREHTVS

[4] = biological target: human kallikrein (human, UniProt P03952 20-638); assay: cell-based or functional assay
Chain of human kallikrein (P03952 20-638 limits assumed): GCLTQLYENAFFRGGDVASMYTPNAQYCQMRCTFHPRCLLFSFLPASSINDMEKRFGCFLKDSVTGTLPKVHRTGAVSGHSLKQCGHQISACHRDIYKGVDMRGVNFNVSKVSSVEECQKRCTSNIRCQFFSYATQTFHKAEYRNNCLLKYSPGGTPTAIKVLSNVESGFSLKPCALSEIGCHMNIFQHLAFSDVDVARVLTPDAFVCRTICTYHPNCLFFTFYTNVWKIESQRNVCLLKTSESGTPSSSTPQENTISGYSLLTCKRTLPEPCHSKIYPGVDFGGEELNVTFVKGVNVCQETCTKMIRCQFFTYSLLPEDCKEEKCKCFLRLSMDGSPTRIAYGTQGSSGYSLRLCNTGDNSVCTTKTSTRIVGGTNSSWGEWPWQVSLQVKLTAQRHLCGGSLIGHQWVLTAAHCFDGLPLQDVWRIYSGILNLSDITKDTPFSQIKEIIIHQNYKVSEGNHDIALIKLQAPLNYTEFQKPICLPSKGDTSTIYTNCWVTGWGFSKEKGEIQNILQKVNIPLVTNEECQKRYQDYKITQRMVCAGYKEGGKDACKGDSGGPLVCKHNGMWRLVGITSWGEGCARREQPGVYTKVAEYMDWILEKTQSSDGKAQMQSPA

[5] = biological target: human activated protein C (human, UniProt P04070 43-461); assay: cell-based or functional assay
[6] = biological target: human plasmin (human, UniProt P00747 97-810); assay: cell-based or functional assay
Chain of human plasmin (P00747 97-810 limits assumed): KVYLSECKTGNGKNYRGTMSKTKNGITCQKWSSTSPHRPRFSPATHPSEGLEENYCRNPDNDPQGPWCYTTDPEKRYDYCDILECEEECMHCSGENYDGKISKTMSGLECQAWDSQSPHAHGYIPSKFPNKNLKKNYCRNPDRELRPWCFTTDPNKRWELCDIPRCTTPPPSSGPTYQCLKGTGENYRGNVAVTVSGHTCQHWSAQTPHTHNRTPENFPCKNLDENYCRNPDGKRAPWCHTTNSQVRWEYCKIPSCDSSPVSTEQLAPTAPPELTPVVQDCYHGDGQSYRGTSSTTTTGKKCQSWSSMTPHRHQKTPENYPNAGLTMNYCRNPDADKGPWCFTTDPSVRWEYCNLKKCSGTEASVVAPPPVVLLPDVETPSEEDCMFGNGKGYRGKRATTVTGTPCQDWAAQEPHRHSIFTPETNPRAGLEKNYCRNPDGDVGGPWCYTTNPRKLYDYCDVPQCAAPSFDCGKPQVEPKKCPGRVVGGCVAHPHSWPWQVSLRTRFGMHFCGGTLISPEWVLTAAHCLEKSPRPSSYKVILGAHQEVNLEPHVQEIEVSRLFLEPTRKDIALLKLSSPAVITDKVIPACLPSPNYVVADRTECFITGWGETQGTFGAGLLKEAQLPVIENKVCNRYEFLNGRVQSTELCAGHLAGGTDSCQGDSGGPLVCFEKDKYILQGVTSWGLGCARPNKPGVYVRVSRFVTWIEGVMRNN

[7] = biological target: recombinant tissue plasminogen activator (human, UniProt P00750 36-562); assay: cell-based or functional assay
Chain of recombinant tissue plasminogen activator (P00750 36-562 limits assumed): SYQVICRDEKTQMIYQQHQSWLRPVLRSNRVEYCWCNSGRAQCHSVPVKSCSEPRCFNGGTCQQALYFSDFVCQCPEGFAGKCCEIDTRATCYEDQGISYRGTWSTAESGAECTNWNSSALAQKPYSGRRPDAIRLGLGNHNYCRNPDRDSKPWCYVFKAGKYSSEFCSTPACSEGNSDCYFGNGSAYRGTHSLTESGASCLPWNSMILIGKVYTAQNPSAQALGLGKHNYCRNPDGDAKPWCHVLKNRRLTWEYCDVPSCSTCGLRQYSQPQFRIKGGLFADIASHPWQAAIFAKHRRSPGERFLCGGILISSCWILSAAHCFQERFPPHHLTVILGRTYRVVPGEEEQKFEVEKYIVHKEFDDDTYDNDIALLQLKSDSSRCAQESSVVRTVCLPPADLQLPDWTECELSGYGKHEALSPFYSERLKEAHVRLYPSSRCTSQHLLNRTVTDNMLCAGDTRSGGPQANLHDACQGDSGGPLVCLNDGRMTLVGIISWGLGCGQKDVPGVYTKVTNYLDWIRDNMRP

[8] = biological target: human urokinase (human, UniProt P00749 156-431); assay: cell-based or functional assay
[9] = biological target: bovine pancreatic chymotrypsin (bovine, UniProt P00766 1-245); assay: cell-based or functional assay
[10] = biological target: human pancreatic trypsin (human, UniProt P07477 24-247); assay: cell-based or functional assay
[11] = biological target: human factor Xa (human, UniProt P00742 41-179; P00742 235-488); assay: cell-based or functional assay
Chain of human factor Xa (P00742 41-179 limits assumed, chain 1 of 2): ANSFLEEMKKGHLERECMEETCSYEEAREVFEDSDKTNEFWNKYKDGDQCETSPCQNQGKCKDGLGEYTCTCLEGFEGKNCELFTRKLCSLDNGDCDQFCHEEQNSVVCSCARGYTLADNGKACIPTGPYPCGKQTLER
Chain of human factor Xa (P00742 235-488 limits assumed, chain 2 of 2): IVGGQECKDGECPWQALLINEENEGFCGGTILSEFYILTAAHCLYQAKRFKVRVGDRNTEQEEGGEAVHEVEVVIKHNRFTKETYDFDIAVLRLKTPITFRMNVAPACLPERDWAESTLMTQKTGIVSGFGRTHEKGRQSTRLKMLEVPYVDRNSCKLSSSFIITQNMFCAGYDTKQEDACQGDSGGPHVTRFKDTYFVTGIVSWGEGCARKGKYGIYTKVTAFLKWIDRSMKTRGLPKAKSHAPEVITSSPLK

[12] = biological target: T2, rFVIIa/rTF/PLV complex (human, UniProt P08709 61-466; P13726 33-295); assay: rFVIIa/rTF/PLV amidolytic assay (S-2288), no FXa addition; apparent Ki*
T2 construct: Complex formed in HBSA with CaCl2 on phosphatidyl choline/phosphatidyl serine vesicles; also called fVIIa/TF; FVIIa/TF
T2 sequence (P08709 61-466 limits assumed, chain 1 of 2): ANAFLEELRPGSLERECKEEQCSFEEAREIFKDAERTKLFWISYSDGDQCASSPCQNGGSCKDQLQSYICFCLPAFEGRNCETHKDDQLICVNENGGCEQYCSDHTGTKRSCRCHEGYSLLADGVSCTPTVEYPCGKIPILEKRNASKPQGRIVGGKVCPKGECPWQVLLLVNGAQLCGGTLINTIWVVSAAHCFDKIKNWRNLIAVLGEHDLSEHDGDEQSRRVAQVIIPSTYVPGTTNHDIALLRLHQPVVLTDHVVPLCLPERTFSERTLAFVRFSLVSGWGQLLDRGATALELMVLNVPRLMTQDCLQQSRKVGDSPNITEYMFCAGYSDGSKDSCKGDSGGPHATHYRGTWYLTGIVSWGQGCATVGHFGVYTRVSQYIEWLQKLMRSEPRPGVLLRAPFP
T2 sequence (P13726 33-295 limits assumed, chain 2 of 2): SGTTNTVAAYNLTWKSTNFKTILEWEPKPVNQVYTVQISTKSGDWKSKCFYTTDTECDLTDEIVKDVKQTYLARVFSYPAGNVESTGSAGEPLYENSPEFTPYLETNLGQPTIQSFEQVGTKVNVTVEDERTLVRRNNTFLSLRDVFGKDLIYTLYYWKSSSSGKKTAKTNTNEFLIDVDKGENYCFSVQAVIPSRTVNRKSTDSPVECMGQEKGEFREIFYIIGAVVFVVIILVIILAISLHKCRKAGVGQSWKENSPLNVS

[13] = biological target: T2, rFVIIa/rTF/PLV complex; assay: rFVIIa/rTF/PLV amidolytic assay (S-2288) plus 2.5 nM EGR-FXa; apparent Ki*

B1: recombinant AceNAP4 (other)
chain: KPNNVMTNACGLNEYFAECGNMKECEHRCNEEENEERDEERITACLIRVCFRPGACVCKDGFYRNRTGSCVEEDDCEYENMEFITFAPEVPICGSNERYSDCGNDKQCERKCNEDDYEKGDEACRSHVCERPGACVCEDGFYRNKKGSCVESDDCEYDNMDFITFAPETSR
notes: Two NAP domains
Q: Which results are given for B1?
A: % Control Velocity (amidolytic activity; 75 nM NAP, 750 pM enzyme) [1]: 93%; % Control Velocity (amidolytic activity; 75 nM NAP, 750 pM enzyme) [2]: 96%; % Control Velocity (amidolytic activity; 75 nM NAP, 750 pM enzyme) [3]: 102%; % Control Velocity (amidolytic activity; 75 nM NAP, 750 pM enzyme) [4]: 32%; % Control Velocity (amidolytic activity; 75 nM NAP, 750 pM enzyme) [5]: 103%; % Control Velocity (amidolytic activity; 75 nM NAP, 750 pM enzyme) [6]: 100%; % Control Velocity (amidolytic activity; 75 nM NAP, 750 pM enzyme) [7]: 108%; % Control Velocity (amidolytic activity; 75 nM NAP, 750 pM enzyme) [8]: 103%; % Control Velocity (amidolytic activity; 75 nM NAP, 750 pM enzyme) [9]: 96%; % Control Velocity (amidolytic activity; 75 nM NAP, 750 pM enzyme) [10]: 98%; % Control Velocity (amidolytic activity; 75 nM NAP, 750 pM enzyme) [11]: 76%; Ki [12]: 59.2 nM; Ki [13]: 0.378 nM
